Data published in patent US5427937.

Biological target: purified human coagulation factor Xa (human) (UniProt P00742)

Work on “crude soluble hookworm protein extract (Ancylostoma caninum adult worms) (pool or library)” yielded a factor Xa activity (chromogenic assay, hydrolysis of Chromozym X) of 50 % reduction.
